Laboratory results as given in article PMC11722290 (bioRxiv, 2025).
Residue numbers refer to the chain shown, from its start. In names and notes the source's numbering stands.

T1: human Lis1, wild type (human, UniProt P43034 2-410)
T1 sequence: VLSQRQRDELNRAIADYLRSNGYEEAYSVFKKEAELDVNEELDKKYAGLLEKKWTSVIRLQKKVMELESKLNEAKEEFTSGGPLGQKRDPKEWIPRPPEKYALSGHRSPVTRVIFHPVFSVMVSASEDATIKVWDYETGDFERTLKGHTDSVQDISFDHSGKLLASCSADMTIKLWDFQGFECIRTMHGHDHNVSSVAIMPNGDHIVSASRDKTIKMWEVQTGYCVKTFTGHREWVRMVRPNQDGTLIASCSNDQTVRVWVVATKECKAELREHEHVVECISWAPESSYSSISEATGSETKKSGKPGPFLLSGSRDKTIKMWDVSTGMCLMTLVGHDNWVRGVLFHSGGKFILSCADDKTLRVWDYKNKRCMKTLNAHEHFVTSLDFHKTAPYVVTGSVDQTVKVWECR

B1: Lis1^AAA5 (Lis1 M172K, D192K, Y225A, C226D) (natural protein)
chain: T1 sequence with M171K, D191K, Y224A, C225D
B2: Lis1^AAA6 (Lis1 N203K, D205K, Q222A) (natural protein)
chain: T1 sequence with N202K, D204K, Q221A
B3: Lis1^linker (Lis1 E300K, K303E, S304R, M329A) (natural protein)
chain: T1 sequence with E299K, K302E, S303R, M328A
B4: human Nde1 (N-terminal residues 1-190) (domain or fragment)
chain: MEDSGKTFSSEEEEANYWKDLAMTYKQRAENTQEELREFQEGSREYEAELETQLQQIETRNRDLLSENNRLRMELETIKEKFEVQHSEGYRQISALEDDLAQTKAIKDQLQKYIRELEQANDDLERAKRATIMSLEDFEQRLNQAIERNAFLESELDEKENLLESVQRLKDEARDLRQELAVQQKQEKPR

Experiments:
[1] = molecular target: full-length human dynein (cytoplasmic dynein-1), wild type (human) (UniProt Q14204); assay: cryo-EM structure
[2] = molecular target: full-length human dynein (cytoplasmic dynein-1), wild type (human) (UniProt Q14204); assay: mass photometry
[3] = molecular target: the molecule itself; assay: mass photometry
[4] = molecular target: T1, human Lis1, wild type; assay: mass photometry
[5] = molecular target: B2; assay: mass photometry
[6] = molecular target: B3; assay: mass photometry
[7] = molecular target: B1; assay: mass photometry

Molecule: human Lis1, wild type (from UniProt P43034 2-410) (natural protein)
- percent of autoinhibited dynein particles in Phi^L-Lis1 [1]: 57.3%
- stoichiometry N (Lis1 dimer per dynein) [1]: 1
- percent of 1:1 dynein:Lis1 complex [2]: 37%
- percent of complex formation [2]: 69%
- stoichiometry N (Lis1 dimer per dynein) [2]: 1
- stoichiometry N (Lis1 per dynein) [2]: 1

Molecule: B1
- stoichiometry N [3]: 2

Molecule: B2
- stoichiometry N [3]: 2

Molecule: B3
- stoichiometry N [3]: 2

Molecule: B4
- binding result [4]: binds
- binding result [5]: binds
- binding result [6]: binds
- binding result [7]: binds
